Experiments:
Experiment in all cases: split reporter
[1] = molecular target: ADGRL4-CTF1 F409A (human) (UniProt Q9HBW9)
[2] = molecular target: ADGRL4-CTF1 I411A (human) (UniProt Q9HBW9)
[3] = molecular target: ADGRL4-CTF1 S414A (human) (UniProt Q9HBW9)
[4] = molecular target: ADGRL4-CTF1 L412A (human) (UniProt Q9HBW9)
[5] = molecular target: ADGRL4-CTF1 H408A (human) (UniProt Q9HBW9)

LgBiT-mini-Gq (mini-Gs/q version 70) (domain or fragment)
Gq coupling as percent of wild-type CTF1 [1]: 12% | reduction of Gq coupling relative to wild-type CTF1 [2]: > 50% | reduction of Gq coupling relative to wild-type CTF1 [3]: > 50% | reduction of Gq coupling relative to wild-type CTF1 [4]: > 50% | reduction of Gq coupling relative to wild-type CTF1 [5]: > 50%

Source: doi:10.1101/2025.10.03.680274
